Experimental data: paper PMC5823934, “EGF receptor kinase suppresses ciliogenesis through activation of USP8 deubiquitinase” (Nature Communications, 2018)

Target: T1, GST-USP8 (human, UniProt P40818 1-1118)
T1 construct: USP8 deubiquitinase, human cDNA FLJ76940 from the Human Gene and Protein Database, inserted in frame to GST in pGEX-6P-3 (BamHI/XhoI); Wild type; also called bacterially purified GST-USP8; source: E. coli BL21 (DE3), purified (glutathione-sepharose 4B)
T1 sequence (looked up): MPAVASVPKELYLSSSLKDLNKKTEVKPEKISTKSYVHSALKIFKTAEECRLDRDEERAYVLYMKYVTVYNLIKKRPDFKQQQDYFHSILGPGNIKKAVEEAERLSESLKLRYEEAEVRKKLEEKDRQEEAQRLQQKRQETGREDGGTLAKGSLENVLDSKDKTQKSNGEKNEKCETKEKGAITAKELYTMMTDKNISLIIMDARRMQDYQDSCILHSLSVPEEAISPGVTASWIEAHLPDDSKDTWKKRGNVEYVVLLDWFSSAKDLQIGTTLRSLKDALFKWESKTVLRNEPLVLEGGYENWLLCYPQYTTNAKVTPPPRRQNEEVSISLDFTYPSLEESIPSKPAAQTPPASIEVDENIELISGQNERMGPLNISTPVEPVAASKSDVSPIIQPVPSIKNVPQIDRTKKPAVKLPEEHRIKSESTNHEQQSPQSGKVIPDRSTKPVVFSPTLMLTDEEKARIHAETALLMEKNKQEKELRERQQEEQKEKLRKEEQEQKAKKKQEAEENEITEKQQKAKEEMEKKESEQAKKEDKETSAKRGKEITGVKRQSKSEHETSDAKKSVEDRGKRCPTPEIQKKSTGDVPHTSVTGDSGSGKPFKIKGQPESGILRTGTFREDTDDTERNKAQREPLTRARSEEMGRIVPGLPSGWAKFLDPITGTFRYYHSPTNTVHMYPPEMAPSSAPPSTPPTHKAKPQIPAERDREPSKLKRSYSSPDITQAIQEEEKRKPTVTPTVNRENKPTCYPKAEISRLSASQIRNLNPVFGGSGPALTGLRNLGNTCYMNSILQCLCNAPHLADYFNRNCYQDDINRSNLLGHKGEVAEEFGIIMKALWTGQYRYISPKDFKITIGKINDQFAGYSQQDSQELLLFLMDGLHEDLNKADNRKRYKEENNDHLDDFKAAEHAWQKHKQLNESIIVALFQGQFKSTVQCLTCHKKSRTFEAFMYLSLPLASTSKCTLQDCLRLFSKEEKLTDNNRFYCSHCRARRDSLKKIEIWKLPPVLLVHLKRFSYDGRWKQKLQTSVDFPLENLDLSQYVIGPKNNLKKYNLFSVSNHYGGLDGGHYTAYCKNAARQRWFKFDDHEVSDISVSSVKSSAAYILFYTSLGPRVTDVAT
Test: pull-down; MBP-trichoplein (1 ug) and GST-USP8 (1 ug) in cell lysis buffer (20 mM Tris-HCl pH 7.5, 150 mM NaCl, 2 mM beta-glycerophosphate, 2 mM EGTA, 1% Triton X-100), 2 h at 4 °C; glutathione-sepharose 4B; immunoblot
Details: both partners purified

B1: MBP-trichoplein (natural protein, human, UniProt Q9BT92 1-498, looked up)
chain: MALPTLPSYWCSQQRLNQQLARQREQEARLRQQWEQNSRYFRMSDICSSKQAEWSSKTSYQRSMHAYQREKMKEEKRRSLEARREKLRQLMQEEQDLLARELEELRLSMNLQERRIREQHGKLKSAKEEQRKLIAEQLLYEHWKKNNPKLREMELDLHQKHVVNSWEMQKEEKKQQEATAEQENKRYENEYERARREALERMKAEEERRQLEDKLQAEALLQQMEELKLKEVEATKLKKEQENLLKQRWELERLEEERKQMEAFRQKAELGRFLRHQYNAQLSRRTQQIQEELEADRRILQALLEKEDESQRLHLARREQVMADVAWMKQAIEEQLQLERAREAELQMLLREEAKEMWEKREAEWARERSARDRLMSEVLTGRQQQIQEKIEQNRRAQEESLKHREQLIRNLEEVRELARREKEESEKLKSARKQELEAQVAERRLQAWEADQQEEEEEEEARRVEQLSDALLQQEAETMAEQGYRPKPYGHPKIAWN
notes: also called recombinant MBP-trichoplein; source: E. coli BL21 CodonPlus RP, purified (amylose resin)
binding result: binds
